Data taken from article PMC12221297, “Negative regulation of miRNA sorting into EVs is mediated by the capacity of RBP PCBP2 to impair the SYNCRIP-dependent miRNA loading”.

Molecular target: PCBP2 recombinant (Origene TP522190) (Mus musculus, UniProt Q61990 1-362)
Assay: pull-down; EMSA: REMSA binding buffer (LightShift kit), 4 ug extract, 0.5 pmol biotin-RNA, 30 min room temperature, native 6% PAGE 0.5x TBE; pull-down: streptavidin beads
Conditions: protein: commercial; label: 5' biotin

PCBP2 recombinant (Origene TP522190), sequence (Q61990 whole entry): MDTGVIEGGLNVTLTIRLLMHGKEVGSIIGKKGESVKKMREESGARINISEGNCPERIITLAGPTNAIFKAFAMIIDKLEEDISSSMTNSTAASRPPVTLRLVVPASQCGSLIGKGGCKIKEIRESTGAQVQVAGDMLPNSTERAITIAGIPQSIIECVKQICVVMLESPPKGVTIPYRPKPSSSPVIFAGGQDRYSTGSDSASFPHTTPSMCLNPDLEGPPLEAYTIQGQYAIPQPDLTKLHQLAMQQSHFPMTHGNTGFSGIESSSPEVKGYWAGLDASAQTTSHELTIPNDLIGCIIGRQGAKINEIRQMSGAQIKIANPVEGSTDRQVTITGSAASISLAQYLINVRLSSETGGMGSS

B1: miR-155-3p WT (Table 1: miR-155b-3p WT) (ssRNA)
RNA: CUCCUACCUGUUAGCAUUAAC
B1: binds.
